Experimental data: the supplement of paper PMC7125110
± gives the standard error. For some of these results: This sample holds only a part of the variants without activity.

B1: glmS ribozyme (parent)
chain: AUAAAAGCGCCAGAACUACAGAAAUGUAGUUGACGAGGAGGAGGUUUAUCGAAUUUUCGGCGGAUGCCUCCAAA

Experiments:
Details in all cases: with glucosamine-6-phosphate
glucosamine-6-phosphate [1] = variants of: B1; assay: kcat; higher = faster cleavage; RNA array
How it was run: (§1)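 On sequenced MiSeq chips, barcoded ribozyme variants were made in situ by E. coli RNA polymerase and followed at 37 °C through a hybridised Cy3 probe. Glucosamine-6-phosphate was flowed in at 40 μM to 10 mM in HEPES/KCl/Mg(OAc)2 buffer. Exponential fits to normalised per-tile medians gave kobs, and weighted Michaelis–Menten fits gave kcat and KM.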

glucosamine-6-phosphate [2] = variants of: B1; assay: self-cleavage kobs at 40 uM GlcN6P; higher = faster cleavage; RNA array
How it was run: as §1

glucosamine-6-phosphate [3] = variants of: B1; assay: self-cleavage kobs at 2500 uM GlcN6P; higher = faster cleavage; RNA array
How it was run: as §1

glucosamine-6-phosphate [4] = variants of: B1; assay: self-cleavage kobs at 10000 uM GlcN6P; higher = faster cleavage; RNA array
How it was run: as §1

glucosamine-6-phosphate [5] = variants of: B1; assay: self-cleavage kobs at 640 uM GlcN6P; higher = faster cleavage; RNA array
How it was run: as §1

glucosamine-6-phosphate [6] = variants of: B1; assay: self-cleavage kobs at 160 uM GlcN6P; higher = faster cleavage; RNA array
How it was run: as §1

glucosamine-6-phosphate [7] = variants of: B1; assay: KM; higher = weaker cofactor use; RNA array
How it was run: as §1

Variant | kcat (glucosamine-6-phosphate [1]) [s⁻¹] | self-cleavage kobs at 40 uM GlcN6P (glucosamine-6-phosphate [2]) [s⁻¹] | self-cleavage kobs at 2500 uM GlcN6P (glucosamine-6-phosphate [3]) [s⁻¹] | self-cleavage kobs at 10000 uM GlcN6P (glucosamine-6-phosphate [4]) [s⁻¹] | self-cleavage kobs at 640 uM GlcN6P (glucosamine-6-phosphate [5]) [s⁻¹] | self-cleavage kobs at 160 uM GlcN6P (glucosamine-6-phosphate [6]) [s⁻¹] | KM (glucosamine-6-phosphate [7]) [µM]
AUAAAAGCGCCAGAACUACAGAAAUGUAUUUGACGAGGAGGAGGUUUAUCGAAUUUUCCGCGGAUGCCUCCAAA | < 1e-05 | < 1e-05 | < 1e-05 | < 1e-05 |  |  | 
AUAAAAGCGCCAGAACUACAGAAAUGUAUUUGACGAGGAGGAGGUUUAUCGAAUUUUCGGCGGAUGACACCAAA | 7.55e-05 ± 1.2e-05 |  | 0.000106 ± 2.6e-05 | 6.88e-05 ± 1.3e-05 | 5.78e-05 ± 2.8e-05 |  | 
AUAAAAGCGCCAGAACUACAGAAAUGUAUUUGACGAGGAGGAGGUUUAUCGAAUUUUCGACGGAUGCCUCCAAA | < 1e-05 | < 1e-05 |  | < 1e-05 | < 1e-05 | < 1e-05 | 
AUAAAAGCGCCAGAACUACAGAAAUGUAUUUGACGAGGAGGAGGUUUAUCGAAUUUUCGGCGGAUGCGUCCAAA | 3.07e-05 ± 6.3e-06 |  | 3.95e-05 ± 1.1e-05 |  |  |  | 
AUAAAAGCGCCAGAACUACAGAAAUGUAUUUGACGAGGAGAAGGUUUAUCGAAUUUUCGGCGGAUGCCUCCAAA | 0.000207 ± 3.7e-05 | < 1e-05 | 0.000155 ± 3.1e-05 | 0.000164 ± 4e-05 | 5.62e-05 ± 1.8e-05 |  | 1480 ± 620
AUAAAAGCGCCAGAACUACAGAAAUGUAUUUGAGGAGGAGGAGGUUUAUCGAAUUUUCGGCGGAUGCCUCCAAA | < 1e-05 | < 1e-05 |  | < 1e-05 |  |  | 
AUAAAAGCGCCAGAACUACAGAAAUGUAUUUGACGAGGAGGAGGUUUAUCGAAUUUUCGGCGGAUGUCUCCAAA | 0.000984 ± 0.0002 | 4.55e-05 ± 8.7e-06 | 0.000575 ± 8.5e-05 | 0.0012 ± 0.00018 | 0.000384 ± 5.4e-05 | 0.000126 ± 1.3e-05 | 1050 ± 320
AUAAAAGCGCCAGAACUACAGAAAUGUAUUUAACGAGGAGGAGGUUUAUCGAAUUUUCGGCGGAUGCCUCCAAA | 0.00151 ± 0.00013 | 3.81e-05 ± 1.5e-05 | 0.000738 ± 0.00012 | 0.00128 ± 0.00016 | 0.000328 ± 6.3e-05 | 0.000105 ± 2.4e-05 | 2210 ± 350
AUAAAAGCGCCAGAACUACAGAAAUGUAUUUGACGAGCAGGAGGUUUAUCGAAUUUUGGGCGGAUGCAUCAAAA | 5.03e-05 ± 2.1e-05 |  | 8.03e-05 ± 4e-05 |  |  |  | 
